In US20240190956A1 (published 2024):

B1: huMOV19-sSPDB-Compound A (antibody)
heavy: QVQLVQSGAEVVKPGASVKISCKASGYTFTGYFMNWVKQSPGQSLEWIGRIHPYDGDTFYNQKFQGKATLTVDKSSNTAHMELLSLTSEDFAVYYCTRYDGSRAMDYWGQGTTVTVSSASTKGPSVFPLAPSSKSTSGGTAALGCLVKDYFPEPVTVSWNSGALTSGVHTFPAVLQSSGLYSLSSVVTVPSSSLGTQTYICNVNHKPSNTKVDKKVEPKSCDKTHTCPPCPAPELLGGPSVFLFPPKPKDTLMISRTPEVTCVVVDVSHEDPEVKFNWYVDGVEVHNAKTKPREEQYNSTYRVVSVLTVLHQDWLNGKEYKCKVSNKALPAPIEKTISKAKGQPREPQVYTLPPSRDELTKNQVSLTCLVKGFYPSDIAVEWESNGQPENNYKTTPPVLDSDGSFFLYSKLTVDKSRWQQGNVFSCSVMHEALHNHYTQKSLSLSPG
light: DIVLTQSPLSLAVSLGQPAIISCKASQSVSFAGTSLMHWYHQKPGQQPRLLIYRASNLEAGVPDRFSGSGSKTDFTLTISPVEAEDAATYYCQQSREYPYTFGGGTKLEIKRTVAAPSVFIFPPSDEQLKSGTASVVCLLNNFYPREAKVQWKVDNALQSGNSQESVTEQDSKDSTYSLSSTLTLSKADYEKHKVYACEVTHQGLSSPVTKSFNRGEC
modifications: Compound A linked through a sulfo-SPDB linker to amino groups of lysine residues, positions not given; Compound A linked through a sulfo-SPDB linker to amino groups of lysine residues, positions not given; average 2.4 Compound A per antibody
B2: huMOV19-NTS #2-Linker1-Compound A (antibody)
heavy: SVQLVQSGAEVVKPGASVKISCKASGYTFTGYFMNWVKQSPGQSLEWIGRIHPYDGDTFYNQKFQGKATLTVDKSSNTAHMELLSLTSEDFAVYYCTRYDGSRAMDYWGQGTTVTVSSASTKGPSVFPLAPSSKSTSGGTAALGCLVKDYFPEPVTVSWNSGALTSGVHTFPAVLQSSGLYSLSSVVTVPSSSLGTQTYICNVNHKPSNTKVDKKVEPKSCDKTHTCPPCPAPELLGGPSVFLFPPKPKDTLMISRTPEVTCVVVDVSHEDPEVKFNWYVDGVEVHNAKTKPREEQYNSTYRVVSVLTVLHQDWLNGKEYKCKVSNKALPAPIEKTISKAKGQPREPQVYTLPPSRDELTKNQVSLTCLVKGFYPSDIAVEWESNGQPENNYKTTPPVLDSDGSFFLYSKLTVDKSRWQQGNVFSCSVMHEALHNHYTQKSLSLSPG
light: B1 light
modifications: N-terminal Ser oxidized to an aldehyde and linked through Linker1 to Compound A (sulfonated DGN462); two Compound A molecules per antibody
B3: huMOV19-NTS #2 (antibody)
heavy: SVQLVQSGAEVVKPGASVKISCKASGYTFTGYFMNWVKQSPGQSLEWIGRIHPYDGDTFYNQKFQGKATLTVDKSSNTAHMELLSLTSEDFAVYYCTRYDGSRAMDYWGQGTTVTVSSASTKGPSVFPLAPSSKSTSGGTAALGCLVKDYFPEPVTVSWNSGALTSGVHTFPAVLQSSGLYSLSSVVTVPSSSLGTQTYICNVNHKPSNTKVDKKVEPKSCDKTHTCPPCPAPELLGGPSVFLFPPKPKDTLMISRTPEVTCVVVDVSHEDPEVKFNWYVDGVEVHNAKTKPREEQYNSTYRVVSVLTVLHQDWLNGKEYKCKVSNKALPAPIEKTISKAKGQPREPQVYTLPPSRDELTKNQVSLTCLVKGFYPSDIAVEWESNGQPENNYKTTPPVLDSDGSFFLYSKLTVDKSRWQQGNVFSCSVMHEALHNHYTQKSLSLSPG
light: B1 light
B4: huMOV19 (antibody)
heavy: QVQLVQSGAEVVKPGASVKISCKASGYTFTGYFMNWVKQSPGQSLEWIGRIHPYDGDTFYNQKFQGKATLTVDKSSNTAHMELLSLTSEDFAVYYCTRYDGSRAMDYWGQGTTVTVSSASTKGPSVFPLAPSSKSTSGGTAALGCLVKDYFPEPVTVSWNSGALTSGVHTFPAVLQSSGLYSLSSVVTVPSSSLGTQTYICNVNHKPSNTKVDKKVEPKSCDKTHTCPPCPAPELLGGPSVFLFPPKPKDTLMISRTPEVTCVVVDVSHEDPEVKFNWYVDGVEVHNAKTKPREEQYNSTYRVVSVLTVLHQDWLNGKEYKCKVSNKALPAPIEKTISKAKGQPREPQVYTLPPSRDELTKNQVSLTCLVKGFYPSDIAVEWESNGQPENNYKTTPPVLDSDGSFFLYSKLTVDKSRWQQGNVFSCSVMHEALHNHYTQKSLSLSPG
light: B1 light

What follows are binders tested against folate receptor alpha (FR-α) (human, UniProt P15328 25-234) (assay: FACS binding on T47D cells).
folate receptor alpha (FR-α), sequence (P15328 25-234): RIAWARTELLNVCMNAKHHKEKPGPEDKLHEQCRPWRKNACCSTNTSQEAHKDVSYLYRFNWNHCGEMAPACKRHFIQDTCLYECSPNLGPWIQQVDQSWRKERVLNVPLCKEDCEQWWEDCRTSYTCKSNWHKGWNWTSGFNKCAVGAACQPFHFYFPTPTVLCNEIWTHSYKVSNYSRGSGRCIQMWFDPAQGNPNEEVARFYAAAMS
In the case of B1, the EC50 is reported as 426 pM.
B2 was tested, and the EC50 was 881 pM.
With B3 the EC50 was 243 pM.
In the case of B4, the EC50 is reported as 323 pM.
